The target in experiment [1] is T1, human CTLA-4 expressed on cells (human, UniProt P16410 36-223).
T1 construct: whole, on cells; On stably or transiently transfected HEK293 cells; also called hCTLA-4; HEK293-hCTLA-4 cells
The experiment can be described thus: flow cytometry on HEK293-hCTLA-4 cells. How it is done:
To test the binding of antibodies to CTLA-4 under more physiological conditions, the binding of CTLA-4 antibodies to cell-surface CTLA-4 was tested. […] The surface expression of hCTLA-4 in the obtained cell line was tested using a commercial anti-CTLA-4 antibody and compared to the parent cell line (HEK293 without transfection). […] The anti-CTLA-4 antibodies were incubated in serial dilution concentrations with the HEK293-hCTLA-4 cells for 1 hour on ice. Following a wash step, an anti-human antibody conjugated to ALEXA FLUOR® 647® was added for an additional hour. The cells were washed, and propidium iodide (PI) was added to exclude dead cells. The fluorescent signal was measured using FACS and analyzed. Dead cells were removed based on the PI signal. The population was gated based on forward and side scatter (FSC and SSC) parameters, and doublets were removed. The Median Fluorescent Intensity (MFI) of the appropriate channel was calculated for the live single cells from each group. The MFI was plotted versus antibody concentration in Prism software (V6.01) and kinetic parameters were obtained using a curve fit dose response function with four parameters. […] The lower EC₅₀ values indicate increased binding affinity to cell surface hCTLA-4.
A general note: Flow cytometry measures light scatter and fluorescence of single cells or particles in a stream.

Experiment [2] addresses T1, human CTLA-4 expressed on cells. Nature of the experiment: flow cytometry on HEK293 cells overexpressing human CTLA-4, serial dilution, MFI. How it is done:
HEK293 cells were prepared as described above. […] Binding was measured using FACS.

Experiment [3] has as its target T2, Recombinant human CTLA-4-his (Sino Biologicals, 11159-H08H) (human, UniProt P16410 36-162).
T2 construct: Bought protein; also called dimer hCTLA-4; not shown: his tag
Nature of the experiment: SPR (Biacore T100), antibody captured on anti-human chip, CTLA-4-his in solution. How it is done: Recombinant human CTLA-4-his (Sino Biologicals, 11159-H08H) was added in a serial 2-fold dilution, starting at a concentration of 500nM. […] The measurement was corrected using the baseline channel and the protein-antibody interaction was measured by the change in surface resonance and quantified with Biacore T100 control software (version 2.0.4).
In general terms: Surface plasmon resonance follows binding to a sensor surface in real time, without labels.

Substitutions are numbered along the chain they refer to.

In general, EC50 refers to the midpoint of the concentration-response curve. Lower therefore signals greater potency. One may read the EC50 (read off the curve) as the concentration at which the effect is half-maximal. Low values mean a more potent agent, high ones a less potent agent. The Kd is the equilibrium constant for the complex coming apart.

T1 sequence (P16410 36-223): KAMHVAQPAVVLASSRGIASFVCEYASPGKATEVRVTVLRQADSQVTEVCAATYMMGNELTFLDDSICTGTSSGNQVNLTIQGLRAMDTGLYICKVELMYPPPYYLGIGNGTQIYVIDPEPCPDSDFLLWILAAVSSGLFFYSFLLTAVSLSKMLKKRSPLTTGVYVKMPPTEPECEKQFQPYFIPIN
T2 sequence (P16410 36-162 limits assumed): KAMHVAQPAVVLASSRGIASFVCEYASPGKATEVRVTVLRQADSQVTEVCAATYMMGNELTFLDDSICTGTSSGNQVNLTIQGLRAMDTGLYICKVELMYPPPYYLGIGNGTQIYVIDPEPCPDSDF

B1: Ab55h-PM1 (antibody, V domains shown)
VH: QVQLQESGPGLVKPSETLSLTCAVSGYSISGDYYWNWIRQPPGKGLEWIGSIYHSGYTYYNPSLKSRVTISVDTSKNQFSLKLSSVTAADTAVYYCARDSGWYVIAFDYWGQGTLVTVSS
VL: EIVMTQSPATLSVSPGERATLSCRASQSVSSNLAWYQEKPGQAPRLLIYGASTRATGIPARFSGSGSGTEFTLTISSLQSEDFAVYYCQQYNNWPPLTFGGGTKVEIK
As to B1, the response in experiment [1] was half-maximal at 0.27 nM (EC50).

B2: Ab55h-PM5 (antibody, V domains shown)
VH: B1 VH with N36G, D108A
VL: B1 VL
Take B2: the EC50 in experiment [1] is 0.24 nM.

B3: Ab55h-PM7 (antibody, V domains shown)
VH: B1 VH with N36G
VL: B1 VL with V29I
With B3, in experiment [1], the response was half-maximal at 0.18 nM (EC50).

B4: Ab55h-PM25 (antibody, V domains shown)
VH: B1 VH with N36G, S100V, W102F
VL: B1 VL
With B4, a half-maximal response in experiment [1] (EC50) required 0.34 nM.

B5: Ab55h-PM27 (antibody, V domains shown)
VH: B1 VH with N36G, W102F, Y109I
VL: B1 VL
Regarding B5, the EC50 in experiment [1] was 0.2 nM.

B6: Ab55h-PM-R5 (antibody, V domains shown)
VH: B1 VH with N36G
VL: B1 VL with N92G
Regarding B6, in experiment [2], the “EC50 (read off the curve)” value was about 0.2 nM.

B7: Ab55h-PM19 (antibody, V domains shown)
VH: B1 VH with N36G
VL: B1 VL with S30G
On to B7, for which the EC50 in experiment [1] was found to be 0.12 nM.

B8: Ab55h-PM20 (antibody, V domains shown)
VH: B1 VH with N36G
VL: B1 VL with S30Y
B8: the EC50 in experiment [1] was 0.19 nM.

B9: Ab55h-PM4 (antibody, V domains shown)
VH: B1 VH with N36G, L64V
VL: B1 VL
Consider B9, for which a half-maximal response in experiment [1] (EC50) required 0.39 nM. This EC50 lies about 2.1-fold higher than the previous one.

B10: Ab55h-PM15 (antibody, V domains shown)
VH: B1 VH with N36G, W102A
VL: B1 VL
In experiment [1], B10 registered an EC50 of 0.32 nM. The EC50 values of the last two molecules are within 1.5-fold of each other.

B11: Ab55h-PM23 (antibody, V domains shown)
VH: B1 VH with N36G
VL: B1 VL with L97F
In turn, B11 showed an EC50 in experiment [1] of 0.22 nM. This EC50 and that of the molecule before are within 1.5-fold of each other.

B12: Ab55h-PM12 (antibody, V domains shown)
VH: B1 VH with N36G, F107Y
VL: B1 VL
In experiment [1], B12 displayed an EC50 of 0.24 nM.

B13: Ab55h-PM14 (antibody, V domains shown)
VH: B1 VH with N36G, W102F
VL: B1 VL
As for B13, a half-maximal effect in experiment [1] (EC50) was put at 0.32 nM.

B14: Ab55h-PM16 (antibody, V domains shown)
VH: B1 VH with N36G
VL: B1 VL with N92A
Take B14: the EC50 in experiment [1] stood at 0.27 nM.

B15: Ab55h-PM13 (antibody, V domains shown)
VH: B1 VH with N36G, S100V
VL: B1 VL
In turn, B15 displayed an EC50 in experiment [1] of 0.22 nM.

B16: Ab55h-PM26 (antibody, V domains shown)
VH: B1 VH with N36G, S100V, W102F, Y109I
VL: B1 VL
Take B16: in experiment [1], the EC50 is 0.35 nM.

B17: Ab55h-PM-R9 (antibody, V domains shown)
VH: B1 VH with N36G, Y103S
VL: B1 VL
With B17, in experiment [2], the binding result is “binds”.

B18: Ab55h-PM3 (antibody, V domains shown)
VH: B1 VH with N36G, G56A
VL: B1 VL
Take B18: the EC50 in experiment [1] was 0.42 nM. This lies in the sub-nanomolar range.

B19: Ab55h-PM11 (antibody, V domains shown)
VH: B1 VH with N36G, A106G
VL: B1 VL
Regarding B19, in experiment [1], the response was half-maximal at 0.21 nM (EC50).

B20: Ab55h-PM24 (antibody, V domains shown)
VH: B1 VH with N36G, S100V, Y109I
VL: B1 VL
In experiment [1], B20 showed an EC50 of 0.2 nM.

B21: Ab55h-PM2 (antibody, V domains shown)
VH: B1 VH with N36G, S55D
VL: B1 VL
Molecule B21 registered an EC50 in experiment [1] of 0.52 nM.

B22: Ab55h-PM18 (antibody, V domains shown)
VH: B1 VH with G31S, N36G
VL: B1 VL
B22 yielded an EC50 in experiment [1] of 0.21 nM.

B23: Ab55h-PM6 (antibody, V domains shown)
VH: B1 VH with N36G, Y109I
VL: B1 VL
The molecule B23 gave an EC50 in experiment [1] of 0.15 nM. The EC50 values of the last two molecules are within 1.5-fold of each other.

B24: Ab55h-PM17 (antibody, V domains shown)
VH: B1 VH with N36G
VL: B1 VL with N93V
In the case of B24, in experiment [1], the EC50 was determined as 0.31 nM.

B25: Ab55h-PM28 (antibody, V domains shown)
VH: B1 VH with N36G, A106G, F107Y
VL: B1 VL
In experiment [1], B25 registered an EC50 of 0.31 nM.

B26: Ab55h-PM-R6 (antibody, V domains shown)
VH: B1 VH with N36G
VL: B1 VL with N93S
With B26, in experiment [2], the binding result is “binds”.

B27: Ab55h-PM8 (antibody, V domains shown)
VH: B1 VH with N36G
VL: B1 VL with G50A
On to B27, for which the EC50 in experiment [1] is 0.16 nM. This lies in the sub-nanomolar range.

B28: Ab55h-PM9 (antibody, V domains shown)
VH: B1 VH with N36G
VL: B1 VL with S52T
B28 had a concentration for a half-maximal effect (EC50) in experiment [1] of 0.26 nM.

B29: Ab55h-PM10 (antibody, V domains shown)
VH: B1 VH with N36G
VL: B1 VL with T53S
In experiment [1], B29 displayed an EC50 of 0.24 nM.

B30: Ab55h-PM22 (antibody, V domains shown)
VH: B1 VH with N36G
VL: B1 VL with L97I
With B30, in experiment [1], the EC50 came to 0.09 nM. This EC50 lies about 2.7-fold lower than the previous one.

B31: Ab55h-PM21 (antibody, V domains shown)
VH: B1 VH with N36G
VL: B1 VL with W94S
Molecule B31 registered an EC50 in experiment [1] of 0.22 nM. Compared with the last molecule, the EC50 is about 2.4-fold higher.

B32: Ab47h (antibody, V domains shown)
VH: QVQLVESGGGVVQPGRSLRLSCAASGFTFSNYGIHWVRQAPGKGLEWVAAIWYDGNNKYYADSVKDRFTISRDNSKNTLYLQMNSLRVEDTAVYYCARNGVLGAFDIWGQGTMVTVSS
VL: DIQMTQSPSSLSASVGDRVTITCRASQGISNYLAWYQQKPGKVPKLLIYAASTLQSGVPSRFSGSGSGTDFTLTISSLQPEDVATYYCQKYNSSPWTFGQGTKVEIK
For B32, in experiment [3], the Kd was found to be 10 nM.

Values taken from patent US20210355220A1 (TIKCRO TECHNOLOGIES, published 2021).
